Assay results from US20170035908A1 (published 2017).

Target: T1, PAM4 antigen (pancreatic cancer mucin, CaPan1 human pancreatic tumor)
T1 construct: also called CaPan1 Ag; CaPan1 antigens
Assay: ELISA on target mucin antigen (FIG. 9)

B1: humanized PAM4 antibody (antibody, V domains shown)
VH: QVQLQQSGAEVKKPGASVKVSCEASGYTFPSYVLHWVKQAPGQGLEWIGYINPYNDGTQYNEKFKGKATLTRDTSINTAYMELSRLRSDDTAVYYCARGFGGSYGFAYWGQGTLVTVSS
VL: DIQLTQSPSSLSASVGDRVTMTCSASSSVSSSYLYWYQQKPGKAPKLWIYSTSNLASGVPARFSGSGSGTDFTLTISSLQPEDSASYFCHQWNRYPYTFGGGTRLEIKR
notes: also called hPAM4; hPAM4 IgG
Binder B1 has an EC50 of 1.31 nM.
